Target: human VAP-1 expressed on the surface of transfected Ax rat endothelial cells (human) (UniProt Q16853)
Assay: cell-based or functional assay

Sequence of human VAP-1 expressed on the surface of transfected Ax rat endothelial cells (human) (Q16853 whole entry): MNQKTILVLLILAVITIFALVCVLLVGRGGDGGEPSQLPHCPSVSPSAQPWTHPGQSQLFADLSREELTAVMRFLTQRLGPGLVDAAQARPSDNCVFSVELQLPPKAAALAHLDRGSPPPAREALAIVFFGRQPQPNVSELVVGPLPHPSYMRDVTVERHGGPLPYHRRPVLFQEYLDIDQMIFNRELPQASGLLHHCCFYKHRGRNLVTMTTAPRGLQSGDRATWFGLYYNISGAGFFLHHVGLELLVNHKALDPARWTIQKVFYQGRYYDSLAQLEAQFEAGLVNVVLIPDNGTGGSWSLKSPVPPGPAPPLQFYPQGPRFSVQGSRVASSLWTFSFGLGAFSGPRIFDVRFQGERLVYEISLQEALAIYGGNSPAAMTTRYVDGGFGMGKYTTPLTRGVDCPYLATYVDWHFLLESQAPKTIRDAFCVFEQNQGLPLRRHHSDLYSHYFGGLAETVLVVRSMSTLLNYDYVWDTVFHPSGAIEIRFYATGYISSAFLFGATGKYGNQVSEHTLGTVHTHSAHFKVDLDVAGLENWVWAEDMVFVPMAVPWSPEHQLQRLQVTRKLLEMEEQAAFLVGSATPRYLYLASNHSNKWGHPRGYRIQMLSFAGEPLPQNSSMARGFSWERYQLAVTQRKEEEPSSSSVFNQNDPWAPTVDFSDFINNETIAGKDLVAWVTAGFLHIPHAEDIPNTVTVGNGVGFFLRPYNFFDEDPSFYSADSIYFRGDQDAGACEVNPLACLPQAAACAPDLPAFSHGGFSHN

## BTT-1002, chimeric anti-VAP-1 monoclonal antibody
  migration of human PBMC through a monolayer of Ax endothelial cells expressing human VAP-1 (in vitro transmigration assay): 1
